Measured values as given in the DeepSol protein solubility set.

assay: soluble on expression in E. coli; label from the status in PepcDB or PDB records

Which “soluble on expression in E. coli” value does the source give for “MVTRITGLASGMDIDDIVSKLMQTERAPLDKLTQKKQTLEWQRDSYREVNSKIKELQDYMSKNTLTYPSTYQSKTVTSSNESVLTATGSVSAPNSSSTVEVASLATAATYKANNYTGYTQGDYNLAFNVVAPGETTAKTVNISVTSADTIDNVISKLNSSDLGVSAFKDKIWNGTEYVETIAFSSKATGAGGSIQAADSATADFMSGQLGFSLDADNKLTAYKEGTNAKVTINGFEMEKLTNNFTVNGVTYSIKNTTAATGPVTTSVSTDVDGIYNQIKEFVDKYNELVDSLNEKLKEEKYRDYTPLTSEQKEAMSDKEVELWEEKAKSGLLRNDSSISTGTNQMRTDFYTQVNADGKTYQLTEFGITTSSAYQLRGHLEINEEKLKAKIAEDPQGVANLFTSGTNDSNYSDKGIMKRITNTLRSTVKSIEAKAGNSTMGASSYSIGKNLNSISTEITDMQDRLNTIENRYYSKFSAMDSAIQKMNEQASYLSQLLVQ” here?
Its value is “not soluble”.

With “MVTSEQLLFLEAWRAVDRAYVDKSFNGQSWFKLRETYLKKEPMDRRAQTYDAIRKLLAVLDDPFTRFLEPSRLAALRRGTAGSVTGVGLEITYDGGSGKDVVVLTPAPGGPAEKAGARAGDVIVTVDGTAVKGLSLYDVSDLLQGEADSQVEVVLHAPGAPSNTRTLQLTRQKVTINPVTFTTCSNVAAAALPPGAAKQQLGYVRLATFNSNTTAAAQQAFTELSKQGVAGLVLDIRNNGGGLFPAGVNVARMLVDRGDLVLIADSQGIRDIYSADGNSIDSATPLVVLVNRGTASASEVLAGALKDSKRGLIAGERTFGKGLIQTVVDLSDGSGVAVTVARYQTPAGVDINKIGVSPDVQLDPEVLPTDLEGVCRVLGSDAAPRLFG” as the sequence, how does the “soluble on expression in E. coli” value read?
Its value is “soluble”.

Which “soluble on expression in E. coli” value does the source give for “MVVKSLVYGIYPRSERLRKAYNRWERGLVGNEEIRRTISEEKDRFYEYVKSVGISEFTDPLFNWHDIFRPIALSVSGVTLGPLKRYLETNTFYREPEISGHITLQRKLDTFDLLEENPPLPLFALAKGSSIFLPTPSSFYKMSSVKANIGAEELYKDLVNVYSDIIDIFKPRSLVLYEVFPYNGDNLSYLESLNQKISVHLLTKGKISEKNFNGIKHKFESIISDDHPEFLKNYAKYYGFKIIDVNKTKVEDPNADYGIENYEDAIVTSNDYFDFLPREIADIKVEVLGKVGEAAALEHHHHHH” here?
The value was “not soluble”.

Which “soluble on expression in E. coli” value does the source give for “MVVSYSDSTPFGERISDSLKETQKLHTMQLNLGKVCNLACRHCHVEAGPNRREQMSQEVMKKALELFVRHGFETLDITGGAPEMNPHFEWLIHEGSKVASRLIVRTNLVILKESPWEHLAEFYAKHKVELVASLPEVSEEEVDRVRGRGVYGDSIEVIKRLNALGYGKNPDLKLDFVYNPSGPFLPPRVMELERLYKEQLFEKEEIFFHRLLSMNNIPIGRFRDSLERSGELLEYETLLRTHFNPSATPHLMCRSQISVSYEGRIYDCDFNQMLSLEAQGAKSLEEMLIQKSLKRRVVFGEHCYACTAGLGSSCQGVIAPEPL” here?
Its value is “not soluble”.

Which “soluble on expression in E. coli” value does the source give for “MVVVPHIDRQFLKDVEAVFTARARVNLPVPNPGLGTWVDRTTDTWFRFNHQLSVAIADILQRNFHYAWLTYQMILVVFKARWFFSSRHTLTVWTQFNLVARTLYRDDNSLE” here?
Its value is “not soluble”.

For “MVWQREKLLQVNEIGYRDIDAGVPMQRDTLFRIASMTKPVTVAAAMSLVDEGKLALRDPITRWAPELCKVAVLDDAAGPLDRTHPARRAILIEDLLTHTSGLAYGFSVSGPISRAYQRLPFGQGPDVWLAALATLPLVHQPGDRVTYSHAIDVLGVIVSRIEDAPLYQIIDERVLGPAGMTDTGFYVSADAQRRAATMYRLDEQDRLRHDVMGPPHVTPPSFCNAGGGLWSTADDYLRFVRMLLGDGTVDGVRVLSPESVRLMRTDRLTDEQKRHSFLGAPFWVGRGFGLNLSVVTDPAKSRPLFGPGGLGTFSWPGAYGTWWQADPSADLILLYLIQHCPDLSVDAAAAVAGNPSLAKLRTAQPKFVRRTYRALGL”, which “soluble on expression in E. coli” value is on record?
Its value is “not soluble”.

With “MVYLYKKGVGMNEQSQAKSPEALRAMVAGTLANFQHPTLKHNLTTLKALHHVAWMDDTLHVELVMPFVWHSAFEELKEQCSAELLRITGAKAIDWKLSHNIATLKRVKNQPGINGVKNIIAVSSGKGGVGKSSTAVNLALALAAEGAKVGILDADIYGPSIPTMLGAENQRPTSPDGTHMAPIMSHGLATNSIGYLVTDDNAMVWRGPMASKALMQMLQETLWPDLDYLVLDMPPGTGDIQLTLAQNIPVTGAVVVTTPQDIALIDAKKGIVMFEKVEVPVLGIVENMSVHICSNCGHHEPIFGTGGAEKLAEKYHTQLLGQMPLHISLREDLDKGTPTVISRPESEFTAIYRQLADRVAAQLYWQGEVIPGEISFRAVLEHHHHHH” as the sequence, how does the “soluble on expression in E. coli” value read?
The value was “not soluble”.

With “MVYRKVTISTKVFENTNAIVAWVSGRPVLLSKYEGKYYAMDAVCGHMGCAILDKVEGKEAVCPAHRARYDVTTGKKTADAVIRPEVKCEYNEASDTLKVYPVRENNGFLEVDMP” as the sequence, how does the “soluble on expression in E. coli” value read?
Its value is “not soluble”.

With “MWDKRELTDLAIISAIGIDRTNDSNYVLHLQIINPGNVAGGLQGGGAGDRPPVSVYSIEGNNITEALRKASMKVSRRLYFAHTNLVVINEKLAKEEGLDFVLDNLDRDTEFRTTATFVVAHKTKAENIVKILTPIDKIPSNKVNKTLDFTEAQYGRVVKINIQDVLKTLAANTMAPVIPGYMMIGDDKKGVSMENTQATDPKAILQADGLAVFDKAGYLKYWLEDDESVGAVWLMNKIQHTFINADWGKTKDAVSLQVTHQDTKLVPKMRNGRPYIHVKVSVEGIIDAVKYPFQLSDPKVLAAIEKALNKELEKEISHTVKKIKKNKIDFIGFGDTIYRKYPEQWEKMKDTWDKEYLPELPIDVKAETYIRRTGLRNNPIKHQFKDDLEHHHHHH” as the sequence, how does the “soluble on expression in E. coli” value read?
The value was “not soluble”.

For “MWITQEITPYLRKEYTIEAKLLDVRSEHNILEIFKSKDFGEIAMLNRQLLFKNFLHIESELLAHMGGCTKKELKEVLIVDGFDLELAHQLFKYDTHIDFVQADEKILDSFISFFPHFHEVKNNKNFTHAKQLLDLDIKKYDLIFCLQEPDIHRIDGLKRMLKEDGVFISVAKHPLLEHVSMQNALKNMGGVFSVAMPFVAPLRILSNKGYIYASFKTHPLKDLMTPKIEALTSVRYYNEDIHRAAFALPKNLQEVFKDNIKS”, which “soluble on expression in E. coli” value is on record?
Its value is “soluble”.

With “MWKNGAMRGCNKETGEFLGPSRSQQRRTALEVLVLSEKLAALTPAQLAKLPIPERLLPHITETKRITSHIARKRQLAFLAKQMRREDDTTLEAIREKLNASGIQAQREVATLHRTEQWRKRLLEEGDSALTELLNQYPQADCGKLRQLLRNSKTEQARNKAPQAFRELYQVLHGLIITQNSDNQHQTPQ” as the sequence, how does the “soluble on expression in E. coli” value read?
Its value is “soluble”.

Which “soluble on expression in E. coli” value does the source give for “MWKRLCAGLSCRKFINQVTMTSVNKNRKSRDENEMAKYNEKELADTSKFLSFVLRHKPEAIGIVLDREGWADIDKLILCAQKAGKRLTRALLDTVVATSDKKRFSYSSDGRCIRAVQGHSTSQVAISFAEKTPPQFLYHGTASRFLDEIKKQGLIAGERHYVHLSADEATARKVGARHGSPVILTVKAQEMAKRGLPFWQAENGVWLTSTVAVEFLEWLEHHHHHH” here?
Its value is “not soluble”.

For “MWLEKFKNKNKETKYRYYEKYKDPLTAKWRRVSVVLNKNGKQSQKEAQRLLNERIEAKLNDKTPTTLKSLTFHVACDEWFQSYIKTSGSKRTTIKTKLSKLNTLKKFVDEDILINKITLSYAQQVFDEMDNKGYVYQVNKDALSIFKNVFEYTRRIYKLQDLEFLKDITLNKRIKSYDEVKAKRNKYLELNEIQSIIKDINTKAQKMHSGIHKRFYLFVALMTEFQALNGMRIGEMLAIQNEDIDFDNKSLNINGTIHWFHDESGGFGVKDTTKTESSYRTIGLSSRSCEILKKAILENKKDSKWNDGYLNRNFVFTNHKGNPMQTERFNKILREAAKDVGIDKEVSSHILRHSHISLLSQQGVSLKAIMDRVGHSDHRTTLSIYSHVTEQMDKDMMNKLEQVKLG”, which “soluble on expression in E. coli” value is on record?
The value was “not soluble”.

Which “soluble on expression in E. coli” value does the source give for “MWPPQGVPMSTPGSSAGHMPLGAGAASFPGQMNGPPQHPGMQYSGQMQQLPYGQMEGNHAMYDQRIMGQRAAGRPGMMPDYPQMPMGQTPGNTMMRMPVQYPSGPSQMAGHPHMQQMQYGHMMRAPPVSVYGQMNNAQQYAVTAHPNPVPQPYYHPEVRQLYETTAGYIVDRELLAEGHVTPGSNGVEAMLTHDASDFLKVSPQTDVLFSIWPVTKSNDPNIQYEVYINQKSVMNSHMQVKSIFIKDFLISGMNSIHIVYNGPQQMYKYACEFVTRKSVIELRKILIQKRVIEGQQLATQQKQQYMQMANKRQAGFYPVSLNCVLSKKRMFTPAKHHECKKIFDLAQLINANKGMTRYFCQTCNAYFKFEDITADYFLLNFLQSIPAGVNDLIVEKTGVVRSGDVEDVKPKRGKKKTDNDANGNGIKRIKSEIIVKQETFTDMHGRNVPFSPMPMPGSVPPDWTRLQSPSFSMQSPNKVQLGPATPATPGMVFQNPASAGSMLNMSSPRQTMIPGMHPMMPPHDVTMRSGSAPYTPESVKNDKNDELLMHIEGLYVCDVPILENEQLTVRYMDGTKDLCFEDSMVYEFAESPKHQQQIDGPPQTLMAPGSTASSSGSTFTPPFDDIHLGNRPSH” here?
Its value is “not soluble”.

Which “soluble on expression in E. coli” value does the source give for “MWQPATERLQVTYLGKVSTTGMQFLSGCTEKPVIELWKKHTLAREDVFPANALLEIRPFQVWLHHLDHKGEATVHMDTFQVARIAYCTADHNVSPNIFAWVYREINDDLSYQMDCHAVECESKLEAKKLAHAMMEAFRKTFHSMKSDGRIHSNSSSEEVSQELESDDG” here?
Its value is “soluble”.

Which “soluble on expression in E. coli” value does the source give for “MWRAKKPTLERRSTDGRRSSIVDWINGLSDNNNYKSDHWVEKHDEGCERMTRNGSVCAVEESEPDVPTQHREVLLTKLKIEIKNIMAEHGAKKYLNLNSPYVTSLCIAVDACIMDGLRRRLLTLFNSPSSMSLLQIIAKSNGPAQQVLDQTREIEELRTSAIPVHLIWIREALYLKSLSTIINHFIDSKSVRRYYDNSALLLDPVKGRLVATLMMAPCMVTYRRMSNRIEQEATAEELVEGATRGSTSTVPSRPPLSKIKKIHFLDNPSSYMSLQKFYDGNLSLKWVPNQLMHASSQPSSGHSNNGEFTNIWKNTINIEMQDIIYIHLHQKDEISPTCLTFVNCEGVQSAPFQLPAGQHSIAFLSSLETGLAPLLRLDPPLWVGTTKEKILPRLRKRSTAVANPAMLDYVFRLVRTSGVEPAPEDIEDPLAPTSHSPPIHDNCVSLPNSPYIVDNVDSIVNFQIGTACQSMRNQIMARAFYGWLTYVRHLRTIRTHLLHLVDTKTLICDDDCDPVDEKFWKQARAEPTEENEKEFLKRVYWRGIEGINTKEVRRMAWPYLLGLFEWNESPESRLEQFTSQYWQDIEEWRVLEAEVRRRDEEAFRAARARKAASPVREESCDVFEDPNEPTCSQHYDRENLITLFRANLHRIDKDVERCDRNLMFFSNKDNLESLRRVMYTYVRRNLEEGYTQGMCDLLAPLLVTFEDEALTLECFSLLMLRQRGKFPQRPGMSKCLLNLRSLIQVVDPQIYALISDIDYAQALSFAFRWFLLDFKRELSYECTYKVWEVIWAAQRLRITDDFAIFFGLATITNYHDVLITNNFDYTDMIKFFNEMAERHDCSRLLSSARTHVKCLQNLVQHLK” here?
Its value is “soluble”.

For “MWRRSLTESHSNELRLELTSRIVSAYLSRNVIAPSELPHLIQQTYGSLGKTSEPTKTPATVEEQRPAVPIKKSVTDDFIVCLEDGKSFKSLKRHLMAKYALTPEQYREKWKLPADYPMVAPNYARKRSELARATGLGKKSAANLSPSLQAVRSA”, which “soluble on expression in E. coli” value is on record?
Its value is “not soluble”.

For “MWYHRLSHLHSRLQDLLKGGVIYPALPQPNFKSLLPLAVHWHHTASKSLTCAWQQHEDHFELKYANTVMRFDYVWLRDHCRSASCYNSKTHQRSLDTASVDLCIKPKTIRLDETTLFFTWPDGHVTKYDLNWLVKNSYEGQKQKVIQPRILWNAEIYQQAQVPSVDCQSFLETNEGLKKFLQNFLLYGIAFVENVPPTQEHTEKLAERISLIRETIYGRMWYFTSDFSRGDTAYTKLALDRHTDTTYFQEPCGIQVFHCLKHEGTGGRTLLVDGFYAAEQVLQKAPEEFELLSKVPLKHEYIEDVGECHNHMIGIGPVLNIYPWNKELYLIRLFKEKQNTVNRQWNSSLQCDIPERILTYRHFVSGTSIEHRGSLI”, which “soluble on expression in E. coli” value is on record?
The value was “not soluble”.
